Assays:
[1] = test system: RDEC-E. coli; test: RDEC-E. coli intestinal infection in rabbits, oral EGF; format: in vivo, New Zealand White rabbits
Method: Twenty-eight New Zealand White rabbits (6 wk-old) were studied in 3 groups: 1) Controls (Con, n=9), 2) Infected with 1×10^7 RDEC-E. coli (I, n=10), and 3) Infected-treated with 60 μg oral EGF daily for 10 days, starting 3 days prior to infection (I-EGF, n=9). Animals were assessed daily for weight gain, rectal passage of E. coli, and presence of diarrhea. Seven days post-infection, animals were killed and mucosa obtained from the jejunum (JEJ), ileum (ILE), and proximal colon (PROX) for quantitation of E. coli, and from the jejunum for mucosal enzyme assays.

[2] = test system: E. coli; test: E. coli translocation across confluent CaCo2 monolayers on Transwell membranes; format: cell-based, human
Method: (§1) Two×10^8 human pathogenic Salmonella typhimurium or E. coli were added to the apical surface of confluent human CaCo2 monolayers grown on Transwell membranes (porosity 3.0 μm). Monolayers received apical EGF (100 μM) or PBS 15 min prior to infection. Each hour post infection (0-7 h), medium under the membrane was replaced and bacterial transepithelial migration rate (CFU/h) was calculated.

[3] = test system: Salmonella typhimurium; test: Salmonella typhimurium translocation across confluent CaCo2 monolayers on Transwell membranes; format: cell-based, human; details: apical EGF 100 μM 15 min prior to infection
Method: as §1

[4] = Weight gain in healthy rabbits given daily oral EGF; format: in vivo, New Zealand white rabbits
Method: EGF was tested for its potential benefits on weight gain. One group of New Zealand white rabbits (6 week old, 500-700 g) received daily oral doses of recombinant human EGF (100 μg/kg body weight) and control animals were given saline only. […] Given the linear aspect of both curves, continued feeding with EGF is likely to produce a steadily increasing. effect on weight gain.

[5] = test system: intestinal brush border membrane nutrient absorption; test: Nutrient uptake into brush border membrane vesicles after jejunal loop treatment; format: in vivo, New Zealand White rabbits
Method: Subsequent experiments examined the effects of EGF and an inhibitor of the EGF receptor (tyrphostin 51) on intestinal brush border membrane nutrient absorption. Tyrphostin 51is a specific inhibitor of tyrosine kinase, which is a critical element of the EGF intracellular signalling cascade. Studies were performed in New Zealand White rabbits (700-1000 g; approximately 8 weeks of age). Two 10 cm blind jejunal loops separated by a 1 cm segment were tied off starting 5 cm distal to the ligament of Treitz. In separate experiments either EGF (60 ng/ml), EGF+tyrphostin (10 μM), or tyrphostin (10 μM) alone in 1.5 ml of saline vehicle was administered to one of the loops. The other loop received vehicle alone and served as a paired control. After one hour, the loops were removed and the mucosa scraped for preparation of brush border membrane vesicles. Nutrient (D-glucose and L-proline) uptake into brush border membrane vesicles was determined by established techniques. Luminal EGF stimulated a significant increase (p<0.001) in brush border membrane glucose (EGF 16.1±1.0 vs CONTROL 11.5±0.9 nmol/min/mg protein; n=5) and proline (EGF 3.8±0.5 vs CONTROL 2.6±0.3 nmol/min/mg protein; n=5) transport compared to controls. […] Subsequently, a further series of experiments examined the effect of tyrphostin alone on brush border glucose transport. […] Thus, EGF treatment increases nutrient absorption and promotes weight gain. Conversely, tyrphostin treatment may promote a decrease in weight gain or weight loss and therefore may be useful in the treatment of obesity. Tyrphostin treatment may also reduce the intestinal uptake of toxic or adverse substances.

[6] = Stability of lyophilized EGF in drinking water; format: physicochemical; details: lyophilized EGF added to drinking water
[7] = jejunum mucosa, 7 days after inoculation

B1: epidermal growth factor (protein, UniProt P01133 23-1207, looked up)
Pro-epidermal growth factor: PQHWSCPEGTLAGNGNSTCVGPAPFLIFSHGNSIFRIDTEGTNYEQLVVDAGVSVIMDFHYNEKRIYWVDLERQLLQRVFLNGSRQERVCNIEKNVSGMAINWINEEVIWSNQQEGIITVTDMKGNNSHILLSALKYPANVAVDPVERFIFWSSEVAGSLYRADLDGVGVKALLETSEKITAVSLDVLDKRLFWIQYNREGSNSLICSCDYDGGSVHISKHPTQHNLFAMSLFGDRIFYSTWKMKTIWIANKHTGKDMVRINLHSSFVPLGELKVVHPLAQPKAEDDTWEPEQKLCKLRKGNCSSTVCGQDLQSHLCMCAEGYALSRDRKYCEDVNECAFWNHGCTLGCKNTPGSYYCTCPVGFVLLPDGKRCHQLVSCPRNVSECSHDCVLTSEGPLCFCPEGSVLERDGKTCSGCSSPDNGGCSQLCVPLSPVSWECDCFPGYDLQLDEKSCAASGPQPFLLFANSQDIRHMHFDGTDYGTLLSQQMGMVYALDHDPVENKIYFAHTALKWIERANMDGSQRERLIEEGVDVPEGLAVDWIGRRFYWTDRGKSLIGRSDLNGKRSKIITKENISQPRGIAVHPMAKRLFWTDTGINPRIESSSLQGLGRLVIASSDLIWPSGITIDFLTDKLYWCDAKQSVIEMANLDGSKRRRLTQNDVGHPFAVAVFEDYVWFSDWAMPSVMRVNKRTGKDRVRLQGSMLKPSSLVVVHPLAKPGADPCLYQNGGCEHICKKRLGTAWCSCREGFMKASDGKTCLALDGHQLLAGGEVDLKNQVTPLDILSKTRVSEDNITESQHMLVAEIMVSDQDDCAPVGCSMYARCISEGEDATCQCLKGFAGDGKLCSDIDECEMGVPVCPPASSKCINTEGGYVCRCSEGYQGDGIHCLDIDECQLGEHSCGENASCTNTEGGYTCMCAGRLSEPGLICPDSTPPPHLREDDHHYSVRNSDSECPLSHDGYCLHDGVCMYIEALDKYACNCVVGYIGERCQYRDLKWWELRHAGHGQQQKVIVVAVCVVVLVMLLLLSLWGAHYYRTQKLLSKNPKNPYEESSRDVRSRRPADTEDGMSSCPQPWFVVIKEHQDLKNGGQPVAGEDGQAADGSMQPTSWRQEPQLCGMGTEQGCWIPVSSDKGSCPQVMERSFHMPSYGTQTLEGGVEKPHSLLSANPLWQQRALDPPHQMELTQ
modifications: Pro-epidermal growth factor
With B1 the “stool cultures for E. coli” value ([1]; I-EGF group) was “positive”, the animals with diarrhea ([1]; I-EGF group, 4 animals in infected group) was “none” and the “effect on infection-induced reduced weight gain” value ([1]; I-EGF vs I) was “prevented”. For the same molecule, the “effect on jejunum maltase and sucrase activities” value ([1]; I-EGF vs I) was “prevented the decrease”, the “reduction of E. coli colonization in the jejunum, ileum and proximal colon” value ([1]; compared to infected (I)) was greater than 85% and the “E. Coli ILE” value ([1]; ileum mucosa, 7 days after inoculation) was 4.88 ± 0.2 Log10 CFU/cm. The “% bacterial clearance in infected + EGF group, ILE” value ([1]; ileum, vs infected) was 95%, the “Cumulative Weight Gain” value ([1]; infected rabbits, 60 μg oral EGF daily for 10 days, 7 days after inoculation) was 316 ± 16 grams and the “E. Coli JEJ” value [1, 7] was 3.10 ± 0.4 Log10 CFU/cm. The “MALT (jejunum maltase activity)” value [1, 7] was 436 ± 48 u/g, the “SUC (jejunum sucrase activity)” value [1, 7] was 89 ± 19 u/g and the “% bacterial clearance in infected + EGF group, JEJ” value ([1]; jejunum, vs infected) was 92%. The “E. Coli PROX” value ([1]; proximal colon mucosa, 7 days after inoculation) was 4.09 ± 0.2 Log10 CFU/cm, the “% bacterial clearance in infected + EGF group, PROX” value ([1]; proximal colon, vs infected) was 85% and the “microorganisms adhering to the epithelial surface (scanning electron microscopy)” value ([2]; Transwell membrane studies, bacterium not specified) was “significantly higher numbers of microorganisms adhering to the epithelial surface of untreated monolayers”. For the same molecule, the “delay of initial E. coli translocation” value ([2]; apical EGF 100 μM 15 min prior to infection) was 1 h, the “inhibition of rate of E. coli invasion (transepithelial migration rate)” value ([2]; apical EGF 100 μM, after the initial delay) was greater than 95% and the “translocation of S. typhimurium” value [3] was “completely abolished”. For the same molecule, the “mean cumulative weight gain” value ([4]; at 9 days, 100 μg/kg body weight daily oral, n=10, controls 394±16 g) was 422 ± 27 g, the “slope of the linear regression curve of weight gain” value ([4]; vs untreated controls, P 0.002, FIG. 1) was “significantly greater” and the “brush border membrane proline transport” value ([5]; EGF 60 ng/ml luminal, one hour, n=5, control 2.6±0.3) was 3.8±0.5 nmol/min/mg protein. The “brush border membrane glucose transport” value ([5]; EGF 60 ng/ml luminal, one hour, n=5, control 11.5±0.9) was 16.1±1.0 nmol/min/mg protein, the “glucose absorption in intact tissue” value ([5]; luminal EGF, initial experiments) was “increased” and the “stability in drinking water” value [6] was “proven stable”.
